Test results reported in PMC3925836 (Advanced healthcare materials, 2013).

Legend:
[1] = molecular target: T1, GPRP-P40-I60; assay: plate-based fluorescence binding assay
T1 chain: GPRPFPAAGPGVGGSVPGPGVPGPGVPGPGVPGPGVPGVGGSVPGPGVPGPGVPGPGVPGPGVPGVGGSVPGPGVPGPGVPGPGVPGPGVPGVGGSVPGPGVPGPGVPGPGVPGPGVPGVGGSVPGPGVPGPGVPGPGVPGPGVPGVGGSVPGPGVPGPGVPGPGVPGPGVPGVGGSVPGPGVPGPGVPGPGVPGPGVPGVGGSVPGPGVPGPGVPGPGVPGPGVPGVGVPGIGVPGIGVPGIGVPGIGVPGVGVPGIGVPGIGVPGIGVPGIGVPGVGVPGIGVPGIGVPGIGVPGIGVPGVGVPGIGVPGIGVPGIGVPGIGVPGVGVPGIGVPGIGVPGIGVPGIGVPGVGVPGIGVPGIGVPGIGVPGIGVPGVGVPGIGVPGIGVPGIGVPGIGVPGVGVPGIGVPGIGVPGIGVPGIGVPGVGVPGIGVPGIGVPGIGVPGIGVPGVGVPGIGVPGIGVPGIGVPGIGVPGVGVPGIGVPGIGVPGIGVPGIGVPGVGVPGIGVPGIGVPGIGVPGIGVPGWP

[2] = molecular target: T2, GPRP-A80-I60; assay: plate-based fluorescence binding assay
T2 chain: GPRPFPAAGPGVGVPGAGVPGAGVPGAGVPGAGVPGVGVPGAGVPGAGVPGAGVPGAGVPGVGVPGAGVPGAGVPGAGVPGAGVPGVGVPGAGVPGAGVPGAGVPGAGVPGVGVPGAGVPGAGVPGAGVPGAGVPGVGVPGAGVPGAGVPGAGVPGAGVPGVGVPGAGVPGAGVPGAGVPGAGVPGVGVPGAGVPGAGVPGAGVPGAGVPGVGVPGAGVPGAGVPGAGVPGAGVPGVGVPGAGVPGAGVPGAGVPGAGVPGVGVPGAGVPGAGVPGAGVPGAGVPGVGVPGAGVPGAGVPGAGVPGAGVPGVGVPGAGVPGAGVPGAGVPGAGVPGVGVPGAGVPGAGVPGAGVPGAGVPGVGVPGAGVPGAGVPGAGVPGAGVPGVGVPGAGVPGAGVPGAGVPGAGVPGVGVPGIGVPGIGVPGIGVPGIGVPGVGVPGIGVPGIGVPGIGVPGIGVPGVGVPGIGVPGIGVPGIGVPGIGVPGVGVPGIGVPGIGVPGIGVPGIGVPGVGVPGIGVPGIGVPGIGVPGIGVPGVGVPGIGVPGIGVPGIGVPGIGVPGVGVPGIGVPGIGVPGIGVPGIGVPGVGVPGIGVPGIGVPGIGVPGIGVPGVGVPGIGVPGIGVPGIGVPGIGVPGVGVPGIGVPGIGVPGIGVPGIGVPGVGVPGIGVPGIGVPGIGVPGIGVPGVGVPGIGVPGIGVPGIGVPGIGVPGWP

B1: GPSP-P40-I60-C labelled with Alexa Fluor 488 or Alexa Fluor 546 (designed binder)
chain: GPSPFPAAGPGVGGSVPGPGVPGPGVPGPGVPGPGVPGVGGSVPGPGVPGPGVPGPGVPGPGVPGVGGSVPGPGVPGPGVPGPGVPGPGVPGVGGSVPGPGVPGPGVPGPGVPGPGVPGVGGSVPGPGVPGPGVPGPGVPGPGVPGVGGSVPGPGVPGPGVPGPGVPGPGVPGVGGSVPGPGVPGPGVPGPGVPGPGVPGVGGSVPGPGVPGPGVPGPGVPGPGVPGVGVPGIGVPGIGVPGIGVPGIGVPGVGVPGIGVPGIGVPGIGVPGIGVPGVGVPGIGVPGIGVPGIGVPGIGVPGVGVPGIGVPGIGVPGIGVPGIGVPGVGVPGIGVPGIGVPGIGVPGIGVPGVGVPGIGVPGIGVPGIGVPGIGVPGVGVPGIGVPGIGVPGIGVPGIGVPGVGVPGIGVPGIGVPGIGVPGIGVPGVGVPGIGVPGIGVPGIGVPGIGVPGVGVPGIGVPGIGVPGIGVPGIGVPGVGVPGIGVPGIGVPGIGVPGIGVPGVGVPGIGVPGIGVPGIGVPGIGVPGWPGGC
modifications: Alexa Fluor 488 or Alexa Fluor 546 on the C-terminal cysteine (sulfhydryl-maleimide)
- binding result [1]: binds
- binding result [2]: binds
